Two molecules from paper PMC2784022 can be followed below.

This test has as its target Gal4BD-TR4LBD (mouse) (UniProt P49117). Nature of the test: two-hybrid.
UniProt P49117, sequence (P49117 178-477): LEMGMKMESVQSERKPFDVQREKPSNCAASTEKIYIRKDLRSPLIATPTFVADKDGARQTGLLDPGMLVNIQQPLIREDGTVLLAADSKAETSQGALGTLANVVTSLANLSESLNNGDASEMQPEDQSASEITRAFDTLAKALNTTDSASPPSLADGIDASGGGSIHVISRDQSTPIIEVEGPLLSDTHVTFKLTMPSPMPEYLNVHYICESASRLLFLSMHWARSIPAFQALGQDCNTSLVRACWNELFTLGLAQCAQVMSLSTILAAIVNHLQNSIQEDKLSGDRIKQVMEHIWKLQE

For the molecule “VP16AD-PCAF (from UniProt Q92831 1-832) (natural protein)”, the fold enhancement of the two-hybrid reporter with γ-linoleic acid was found to be 12 fold.

B1: VP16AD-RIP140 (natural protein)
chain: MTHGEELGSDVHQDSIVLTYLEGLLMHQAAGGSGTAINKKSAGHKEEDQNFNLSGSAFPSCQSNGPTVSTQTYQGSGMLHLKKARLLQSSEDWNAAKRKRLSDSIVNLNVKKEALLAGMVDSVPKGKQDSTLLASLLQSFSSRLQTVALSQQIRQSLKEQGYALSHESLKVEKDLRCYGVASSHLKTLLKKSKTKDQKSGPTLPDVTPNLIRDSFVESSHPAVGQSGTKVMSEPLSCAARLQAVASMVEKRASPAASPKPSVACSQLALLLSSEAHLQQYSREHALKTQNAHQVASERLAAMARLQENGQKDVGSSQLSKGVSGHLNGQARALPASKLVANKNNAATFQSPMGVVPSSPKNTSYKNSLERNNLKQAANNSLLLHLLKSQTIPTPMNGHSQNERASSFESSTPTTIDEYSDNNPSFTDDSSGDESSYSNCVPIDLSCKHRIEKPEAERPVSLENLTQSLLNTWDPKIPGVDIKEDQDTSTNSKLNSHQKVTLLQLLLGHKSEETVERNASPQDIHSDGTKFSPQNYTRTSVIESPSTNRTTPVSTPPLYTASQAESPINLSQHSLVIKWNSPPYACSTPASKLTNTAPSHLMDLTKGKESQAEKPAPSEGAQNSATFSASKLLQNLAQCGLQSSGPGEEQRPCKQLLSGNPDKPLGLIDRLNSPLLSNKTNAAEESKAFSSQPAGPEPGLPGCEIENLLERRTVLQLLLGNSSKGKNEKKEKTPARDEAPQEHSERAANEQILMVKIKSEPCDDFQTHNTNLPLNHDAKSAPFLGVTPAIHRSTAALPVSEDFKSEPASPQDFSFSKNGLLSRLLRQNQESYPADEQDKSHRNSELPTLESKNICMVPKKRKLYTEPLENPFKKMKNTAVDTANHHSGPEVLYGSLLHQEELKFSRNELDYKYPAGHSSASDGDHRSWARESKSFNVLKQLLLSENCVRDLSPHRSDSVPDTKKKGHKNNAPGSKPEFGISSLNGLMYSSPQPGSCVTDHRTFSYPGMVKTPLSPPFPEHLGCVGSRPEPGLLNGCSVPGEKGPIKWVIADMDKNEYEKDSPRLTKTNPILYYMLQKGGGNSVTTQETQDKDIWREPASAESLSQVTVKEELLPAAETKASFFNLRSPYNSHMGNNASRPHSTNGEVYGLLGNALTIKKESE
Regarding B1, the fold enhancement of the two-hybrid reporter with γ-linoleic acid is 23 fold.
